Reference: patent US20250179192A1 (PHARMABCINE, published 2025)

Assays:
VEGFR2 (KDR) on HUVECs = biological target: T1, VEGFR2 (KDR) on HUVECs (human, UniProt P35968 20-1356); test: FACS on HUVECs, 5 nM, anti-human IgG-PE secondary; secondary only 65.7
T1 construct: Endogenous receptor on HUVECs; also called KDR (VEGFR-2)
Protocol: To determine the binding activity of the fusion protein to HUVECs, FACS analysis was performed using the fusion protein and control antibodies (6A6, 6A6×DLL4, D4, Minod-Fc).
Specifically, HUVECs (LONZA, Cat No. C2519A) were cultured at 37° C. and 5% CO₂ using a plate coated with 2% gelatin and VascuLife medium complete kit (Lifeline Cell Technology, Cat No. #LCT-LL-0005). The cells were prepared at a concentration of 2×10⁷ cells/ml in FACS buffer (0.5% FBS, 0.05% sodium azide in PBS) and dispensed at 50 μl into each of FACS tubes. 100 μl of each antibody at a concentration of 5 nM was mixed in the FACS tube, followed by reaction at 4° C. for 30 minutes. After completion of reaction, 2 ml of FACS buffer was added to each tube, followed by centrifugation at 1500 rpm for 3 minutes. The supernatant was removed, the cells were resuspended, and 100 μl of anti-human IgG-PE antibody (1:200, Bethyl, #A80-248PE) was added, followed by reaction at 4° C. for 20 minutes. 2 ml of FACS buffer was added to each FACS tube, followed by centrifugation at 1500 rpm for 3 minutes. The separated supernatant was removed, the cells were resuspended in 200 μl of FACS buffer, and the binding activity was analyzed using FACS (Beckton Dickinson, Lyric).

[1] = biological target: T2, hDLL4 expressed on HEK293 cells (human, UniProt Q9NR61 27-685); test: FACS on hDLL4-overexpressing HEK293 cells (293-DLL4), 5 nM, anti-human IgG-PE secondary; secondary only 82.0
T2 construct: whole, on cells; also called DLL4-overexpressed HEK293 cells
Protocol: Specifically, the pcDNA-hDLL4 vector synthesized by GeneArt was transfected into HEK293 cells using Lipofectamin™ 2000 (Invitrogen #1168-019, USA), and neomycin (Gibco #10131, 50 mg/ml) was added for selection. Then, all grown cells were collected and cultured in a pool state. Then, 23 types of single colonies were obtained by culture using a limiting dilution method, and among the single colonies, one type of cell line that highly overexpressed hDLL4 was selected and tested. The selected cells were prepared to a concentration of 2×10⁷ cells/ml in FACS buffer (0.5% FBS, 0.05% sodium azide in PBS) and dispensed at 50 μl into each of FACS tubes. 5 nM fusion protein and control antibodies (6A6, 6A6×DLL4, D4, D4×DLL4, Minod-Fc) were added in 100 μl to each of the FACS tubes containing the cells, followed by reaction at 4° C. for 30 minutes. After completion of reaction, 2 ml of FACS buffer was added to each tube, followed by centrifugation at 1500 rpm for 3 minutes. The supernatant was removed, the cells were well resuspended, and then 100 μl of anti-human IgG-PE antibody (1:200, […], #A80-248PE) was added, followed by reaction at 4° C. for 20 minutes. After completion of reaction, 2 ml of FACS buffer was added to each FACS tube, followed by centrifugation at 1500 rpm for 3 minutes. The separated supernatant was removed, the cells were resuspended in 200 μl of FACS buffer, and the binding activity was analyzed using FACS (Beckton Dickinson, Lyric).

KDR1-3 domains = biological target: T3, KDR1-3 domains (UniProt P35968 20-327, limits assumed); test: Octet BLI, KDR1-3 domains on biosensor, scFv in solution
T3 construct: domain: KDR1-3 domains; Immobilized on the Octet biosensor; also called KDR D1-D3; KDR1-3 domain-Fc (as used for panning)
Protocol: The binding ability of the selected antibodies to the antigen was measured using Octet (Fortebio). To this end, KDR1-3 domains were immobilized on a biosensor, candidate antibodies expressed in scFv form were added and bound, and the dissociation rate constant was measured. The results of measurement of dissociation rate constant for the five selected optimized clones [Table 1] and amino acid sequences [Tables 2 and 3] are shown below.

hKDR-ECD = biological target: T4, hKDR-ECD (human, UniProt P35968 20-764); test: SPR Biacore T200, fusion protein captured on Protein A chip, antigen as analyte, 1:1 model
T4 construct: extracellular domain; Analyte in SPR; also called human KDR (VEGFR-2) extracellular domain
Protocol: (§1) The binding ability of the selected fusion protein to the antigen was measured using SPR (Biacore T200, Cytiva). The fusion protein was captured and analyzed using the antigen protein as an analyte. Using a Protein A chip, the fusion protein was immobilized on the surface according to the manufacturer's instructions. The fusion protein on the sensor chip was diluted with PBS-T running buffer to a concentration of 5 μg/ml and injected at a flow rate of 10 μl/min to reach about 200 RU. The antigen was diluted with PBS-T running buffer by concentration and injected at a flow rate of 30 μl/min for 4 minutes, and the dissociation time was set to 10 minutes. To remove the fusion protein bound every cycle, a regeneration solution (10 mM glycine-HCl, pH 1.5) was injected at a flow rate of 30 μl/min for 1 minute. The experimental results were calculated using the 1:1 binding model of BIA evaluation software version 1.0.

hDLL4 = biological target: T5, hDLL4 (human, UniProt Q9NR61 27-524, limits assumed); test: as above
T5 construct: Analyte in SPR; also called human delta-like ligand 4 (soluble antigen protein)
Protocol: as §1

T1 sequence (P35968 20-1356 limits assumed): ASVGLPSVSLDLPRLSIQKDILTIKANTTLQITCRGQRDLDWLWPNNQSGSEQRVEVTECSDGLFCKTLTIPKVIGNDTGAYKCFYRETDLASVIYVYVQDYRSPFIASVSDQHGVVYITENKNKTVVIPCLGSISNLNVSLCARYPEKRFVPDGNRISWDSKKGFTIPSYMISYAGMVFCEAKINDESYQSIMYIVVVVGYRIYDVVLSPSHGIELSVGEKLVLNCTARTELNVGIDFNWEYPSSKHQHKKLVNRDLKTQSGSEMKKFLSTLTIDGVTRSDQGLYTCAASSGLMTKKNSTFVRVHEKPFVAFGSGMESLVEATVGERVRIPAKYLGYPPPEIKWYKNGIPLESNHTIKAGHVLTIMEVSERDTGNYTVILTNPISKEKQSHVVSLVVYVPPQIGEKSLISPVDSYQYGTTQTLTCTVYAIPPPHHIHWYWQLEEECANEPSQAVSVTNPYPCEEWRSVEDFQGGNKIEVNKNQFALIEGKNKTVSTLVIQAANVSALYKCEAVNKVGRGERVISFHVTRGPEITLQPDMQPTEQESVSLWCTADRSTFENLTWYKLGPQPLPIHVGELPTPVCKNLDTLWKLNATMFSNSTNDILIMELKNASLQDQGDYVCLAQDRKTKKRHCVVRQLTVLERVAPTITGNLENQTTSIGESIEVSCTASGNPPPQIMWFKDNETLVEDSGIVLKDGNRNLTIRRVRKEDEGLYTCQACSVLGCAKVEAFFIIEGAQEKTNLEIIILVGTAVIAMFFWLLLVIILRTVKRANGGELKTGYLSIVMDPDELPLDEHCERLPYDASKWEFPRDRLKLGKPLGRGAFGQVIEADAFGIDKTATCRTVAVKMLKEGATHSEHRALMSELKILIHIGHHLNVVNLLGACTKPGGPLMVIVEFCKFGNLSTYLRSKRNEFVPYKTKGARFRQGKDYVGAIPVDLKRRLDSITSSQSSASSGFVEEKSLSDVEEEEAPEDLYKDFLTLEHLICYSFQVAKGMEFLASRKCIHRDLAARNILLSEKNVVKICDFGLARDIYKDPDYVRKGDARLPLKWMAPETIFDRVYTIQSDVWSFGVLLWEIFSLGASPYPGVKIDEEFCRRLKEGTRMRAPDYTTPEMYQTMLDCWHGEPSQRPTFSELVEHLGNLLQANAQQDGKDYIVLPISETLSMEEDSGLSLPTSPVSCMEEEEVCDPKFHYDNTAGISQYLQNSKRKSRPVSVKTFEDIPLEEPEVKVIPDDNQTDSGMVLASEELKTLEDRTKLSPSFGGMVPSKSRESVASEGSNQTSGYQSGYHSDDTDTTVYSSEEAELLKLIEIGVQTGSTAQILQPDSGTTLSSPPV
T4 sequence (P35968 20-764): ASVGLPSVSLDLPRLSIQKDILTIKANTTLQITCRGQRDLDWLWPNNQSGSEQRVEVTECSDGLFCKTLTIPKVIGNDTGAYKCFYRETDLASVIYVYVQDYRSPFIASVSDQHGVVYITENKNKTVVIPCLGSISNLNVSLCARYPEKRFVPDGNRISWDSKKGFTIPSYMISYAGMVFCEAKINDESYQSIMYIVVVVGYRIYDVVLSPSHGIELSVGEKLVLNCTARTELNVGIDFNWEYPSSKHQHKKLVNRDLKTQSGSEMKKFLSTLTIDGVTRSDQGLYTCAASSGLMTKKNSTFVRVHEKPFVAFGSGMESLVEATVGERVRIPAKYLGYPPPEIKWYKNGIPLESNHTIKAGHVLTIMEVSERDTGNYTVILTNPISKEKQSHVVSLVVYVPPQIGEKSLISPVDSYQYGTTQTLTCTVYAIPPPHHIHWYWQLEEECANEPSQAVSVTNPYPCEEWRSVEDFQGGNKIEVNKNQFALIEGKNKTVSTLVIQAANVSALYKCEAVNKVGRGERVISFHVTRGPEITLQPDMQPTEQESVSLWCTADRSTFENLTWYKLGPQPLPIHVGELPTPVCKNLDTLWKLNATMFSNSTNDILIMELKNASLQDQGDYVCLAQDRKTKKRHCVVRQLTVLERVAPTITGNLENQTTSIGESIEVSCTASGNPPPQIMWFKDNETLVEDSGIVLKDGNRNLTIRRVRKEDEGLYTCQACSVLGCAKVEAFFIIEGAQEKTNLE
T2 sequence (Q9NR61 27-685): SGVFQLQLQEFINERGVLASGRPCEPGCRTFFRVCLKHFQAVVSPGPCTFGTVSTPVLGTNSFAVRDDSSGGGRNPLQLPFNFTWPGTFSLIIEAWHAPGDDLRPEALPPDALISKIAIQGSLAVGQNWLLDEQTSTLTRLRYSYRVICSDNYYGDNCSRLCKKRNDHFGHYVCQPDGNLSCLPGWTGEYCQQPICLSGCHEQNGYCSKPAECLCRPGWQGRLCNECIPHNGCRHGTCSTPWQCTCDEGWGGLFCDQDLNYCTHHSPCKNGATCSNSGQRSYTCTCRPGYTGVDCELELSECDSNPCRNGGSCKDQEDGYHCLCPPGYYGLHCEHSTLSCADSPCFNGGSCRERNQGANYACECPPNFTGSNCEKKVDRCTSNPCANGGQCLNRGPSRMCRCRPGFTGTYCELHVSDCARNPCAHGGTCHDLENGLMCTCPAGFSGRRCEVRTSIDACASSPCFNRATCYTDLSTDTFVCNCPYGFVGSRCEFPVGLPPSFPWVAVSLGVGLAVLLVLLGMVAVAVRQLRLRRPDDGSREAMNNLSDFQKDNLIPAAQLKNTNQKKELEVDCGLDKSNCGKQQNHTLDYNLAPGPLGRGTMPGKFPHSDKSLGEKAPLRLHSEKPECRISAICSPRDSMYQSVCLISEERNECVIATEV
T3 sequence (P35968 20-327 limits assumed): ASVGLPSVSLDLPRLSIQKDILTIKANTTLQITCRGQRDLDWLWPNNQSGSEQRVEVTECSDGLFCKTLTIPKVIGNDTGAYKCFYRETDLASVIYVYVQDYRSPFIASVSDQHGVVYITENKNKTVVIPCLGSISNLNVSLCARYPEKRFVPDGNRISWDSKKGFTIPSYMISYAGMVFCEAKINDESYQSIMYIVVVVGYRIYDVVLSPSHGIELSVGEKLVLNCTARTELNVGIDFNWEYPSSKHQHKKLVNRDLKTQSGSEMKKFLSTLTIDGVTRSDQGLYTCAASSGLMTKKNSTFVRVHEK
T5 sequence (Q9NR61 27-524 limits assumed): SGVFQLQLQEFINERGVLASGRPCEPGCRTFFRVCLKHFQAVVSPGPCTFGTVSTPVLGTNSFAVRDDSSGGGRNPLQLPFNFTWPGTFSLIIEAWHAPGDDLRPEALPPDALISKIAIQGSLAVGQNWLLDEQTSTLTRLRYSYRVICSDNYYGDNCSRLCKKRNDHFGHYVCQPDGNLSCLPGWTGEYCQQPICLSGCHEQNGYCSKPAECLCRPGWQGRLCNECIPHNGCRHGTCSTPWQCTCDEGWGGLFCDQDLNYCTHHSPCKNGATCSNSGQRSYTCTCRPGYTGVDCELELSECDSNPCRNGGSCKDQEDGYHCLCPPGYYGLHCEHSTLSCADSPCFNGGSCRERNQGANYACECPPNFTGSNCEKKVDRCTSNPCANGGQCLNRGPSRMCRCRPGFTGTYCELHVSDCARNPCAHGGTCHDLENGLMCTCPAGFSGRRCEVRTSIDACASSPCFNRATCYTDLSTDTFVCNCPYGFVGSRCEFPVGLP

Binder	Geometric Mean : PE-A (VEGFR2 (KDR) on HUVECs)	Geometric Mean : PE-A [1]	koff (KDR1-3 domains)	also measured
D4 (IgG1 form) (antibody, V domains shown, also called optimized antibody D4) VH: EVQLVESGGGLVQPGGSLRLSCAASGYTFSSYWMSWVRQAPGKGLEWVSEINPGNGHTNYNEKFKSRFTISRDKSKNTLYLQMNSLRAEDTAVYYCARHWGPSLTSPFDYWGQGTLVTVSS VL: DIQMTQSPSSLSASVGDRVTITCRADNLGDVNVHWYQQKPGKAPKLLIYYDADRPSGVPSRFSGSNSGNDATLTISSLQPEDFATYYCQAPTNNDPYTFGQGTKVEIKR	456	71.1		
D4 (scFv form) (scFv, V domains shown, Tested as scFv) VH: EVQLVESGGGLVQPGGSLRLSCAASGYTFSSYWMSWVRQAPGKGLEWVSEINPGNGHTNYNEKFKSRFTISRDKSKNTLYLQMNSLRAEDTAVYYCARHWGPSLTSPFDYWGQGTLVTVSS VL: DIQMTQSPSSLSASVGDRVTITCRADNLGDVNVHWYQQKPGKAPKLLIYYDADRPSGVPSRFSGSNSGNDATLTISSLQPEDFATYYCQAPTNNDPYTFGQGTKVEIKR			0.000165 s⁻¹	
D3 (scFv form) (scFv, V domains shown, Tested as scFv) VH: EVQLVESGGGLVQPGGSLRLSCAASGYTFSSYWMSWVRQAPGKGLEWVSEINPGNGHTNYNEKFKSRFTISRDKSKNTLYLQMNSLRAEDTAVYYCARHWGPSLTSPFDYWGQGTLVTVSS VL: DIQMTQSPSSLSASVGDRVTITCRADNLGDVNVHWYQQKPGKAPKLLIYYDADRPSGVPSRFSGSNSGNDATLTISSLQPEDFATYYCQAPTKNVPYTFGQGTKVEIKR			0.00015 s⁻¹	
A5 (scFv form) (scFv, V domains shown, Tested as scFv) VH: EVQLVESGGGLVQPGGSLRLSCAASGYTFSSYWMSWVRQAPGKGLEWVSEINPGNGHTNYNEKFKSRFTISRDKSKNTLYLQMNSLRAEDTAVYYCARHWGPSLTSPFDYWGQGTLVTVSS VL: DIQMTQSPSSLSASVGDRVTITCRADNLGDVNVHWYQQKPGKAPKLLIYYDADRPSGVPSRFSGSNSGNDATLTISSLQPEDFATYYCQAPTTHLPYTFGQGTKVEIKR			0.000187 s⁻¹	
LHL-G1 (scFv form) (scFv, V domains shown, Tested as scFv) VH: EVQLVESGGGLVQPGGSLRLSCAASGYTFSSYWMSWVRQAPGKGLEWVSEINPGNGHTNYNEKFKSRFTISRDKSKNTLYLQMNSLRAEDTAVYYCARSYRPSLTSPFDFWGQGTLVTVSS VL: DIQMTQSPSSLSASVGDRVTITCRADNLGDVNVHWYQQKPGKAPKLLIYYDADRPSGVPSRFSGSNSGNDATLTISSLQPEDFATYYCQAPTTNEPYTFGQGTKVEIKR			0.000239 s⁻¹	
LH-E7 (scFv form) (scFv, V domains shown, Tested as scFv) VH: EVQLVESGGGLVQPGGSLRLSCAASGYTFSSYWMSWVRQAPGKGLEWVSEINPGNGHTNYNEKFKSRFTISRDKSKNTLYLQMNSLRAEDTAVYYCARHWGPSLTSPFDYWGQGTLVTVSS VL: DIQMTQSPSSLSASVGDRVTITCRADNLGDVNVHWYQQKPGKAPKLLIYYDADRPSGVPSRFSGSNSGNDATLTISSLQPEDFATYYCQAPTRIAPYTFGQGTKVEIKR			0.000111 s⁻¹	
6A6×DLL4 (bispecific antibody, Comparative fusion protein with a 6A6 backbone; it was captured on a Protein A chip; also called 6A6xDLL4) VH: QMQLVQSGAEVKKPGASVKLSCKASGYTFSSYWMHWVRQAPGQRLEWMGEINPGNGHTNYNEKFKSRVTITVDKSASTAYMELSSLRSEDTAVYYCAKIWGPSLTSPFDYWGQGTLVTVSS Notch1-VL: not shown	380	968		Kd (hKDR-ECD): 4.46 nM; Pmax (hKDR-ECD): 502; koff (hKDR-ECD): 0.000837 s⁻¹; kon (hKDR-ECD): 188000 M⁻¹ s⁻¹; Pmax (hDLL4): 74.9; kon (hDLL4): 45800 M⁻¹ s⁻¹
6A6 (control antibody) (antibody, V domains shown) VH: QMQLVQSGAEVKKPGASVKLSCKASGYTFSSYWMHWVRQAPGQRLEWMGEINPGNGHTNYNEKFKSRVTITVDKSASTAYMELSSLRSEDTAVYYCAKIWGPSLTSPFDYWGQGTLVTVSS VL: SNFMLTQPPSVSVSPGKTARITCRGDNLGDVNVHWYQQRPGQAPVLVMYYDADRPSGIPERFSGSNSGNTATLTISGVEAGDEADYYCQVWDRTSEYVFGTGTKVTVLG	352	84.6		
